# Substitutions are numbered along the chain they refer to. Numbers in names are those of the source. No end group written: not given here. TMR = tetramethyl rhodamine dye
# T1: Rb^P H585Y (human, UniProt P06400 380-788, H585Y)
# T1 construct: also called variant 33
# T1 sequence (looked up): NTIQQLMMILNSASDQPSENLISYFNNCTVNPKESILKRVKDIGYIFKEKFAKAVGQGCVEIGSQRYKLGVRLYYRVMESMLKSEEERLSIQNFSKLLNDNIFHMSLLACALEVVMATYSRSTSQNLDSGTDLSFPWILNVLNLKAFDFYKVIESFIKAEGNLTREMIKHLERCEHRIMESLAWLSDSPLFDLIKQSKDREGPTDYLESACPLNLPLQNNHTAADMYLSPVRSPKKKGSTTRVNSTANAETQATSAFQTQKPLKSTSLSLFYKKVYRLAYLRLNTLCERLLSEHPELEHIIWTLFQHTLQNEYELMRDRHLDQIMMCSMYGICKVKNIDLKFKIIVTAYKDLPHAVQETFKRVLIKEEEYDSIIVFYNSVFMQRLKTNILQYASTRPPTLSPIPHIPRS
# T2: Rb^P S474I (human, UniProt P06400 380-788, S474I)
# T2 construct: also called variant 11
# T2 sequence (looked up): T1 sequence (looked up) with S95I, Y206H
# T3: Rb^P E554K (human, UniProt P06400 380-788, E554K)
# T3 construct: also called variant 28
# T3 sequence (looked up): T1 sequence (looked up) with E175K, Y206H
# T4: Rb^P D697E (human, UniProt P06400 380-788, D697E)
# T4 construct: also called variant 62
# T4 sequence (looked up): T1 sequence (looked up) with Y206H, D318E
# T5: Rb^P D604G (human, UniProt P06400 380-788, D604G)
# T5 construct: also called variant 36
# T5 sequence (looked up): T1 sequence (looked up) with Y206H, D225G
# B1: TMR-E2F1^TD, peptide of the E2F1 transactivation domain (peptide)
# peptide: {TMR}-GEGIRDLFDCDFGDLTPLD
# notes: also called E2F^TD; source: synthetic peptide, bought: GenScript
# B2: TMR-E7^LxCxE, LxCxE peptide of the E7 oncoprotein from HPV (peptide)
# peptide: DLYCYEQLN
# modifications: also: TMR label, position not given here
# notes: source: synthetic peptide, bought: GenScript
# Columns and labels:
# Assay in all cases: fluorescence polarisation; 25 °C; unlabeled Rb^P titrated against 1.5 nM TMR-E2F1^TD or 7.5 nM TMR-E7^LxCxE; 25 mM Tris pH 8.0, 200 mM NaCl, 1 mM DTT, 0.1% Tween-20; 2 min incubation; quadratic fit; apparent Kd for the variants, Kd for WT
# Conditions in all cases: both partners purified
# Rb^P H585Y = target: T1, Rb^P H585Y
# Rb^P S474I = target: T2, Rb^P S474I
# Rb^P E554K = target: T3, Rb^P E554K
# Rb^P D697E = target: T4, Rb^P D697E
# Rb^P D604G = target: T5, Rb^P D604G
Binder,Kd (Rb^P H585Y),Kd (Rb^P S474I),Kd (Rb^P E554K),Kd (Rb^P D697E),Kd (Rb^P D604G)
B1,35 nM,364 nM,1170 nM,29 nM,27 nM
B2,6 nM,7 nM,12 nM,9 nM,13 nM

# Reference: paper PMC11931385, “Structural and functional analysis of cancer-associated missense variants in the retinoblastoma protein pocket domain” (The Journal of Biological Chemistry, 2025)
